The target in experiment [1] is human FcR I and FcR II on cells. Briefly: 125I-human IgG on U937 cells in the absence of inhibitor.
For experiment [2] the target is unchanged. Briefly: competitive inhibition of PE-murine IgG2a or 125I-human IgG binding to U937 cells.
The target in experiment [3] is T1, human CD3 complex (human, UniProt P07766 23-207).
T1 construct: whole, on cells; In all assays the target stood on cells as the whole TCR/CD3 complex; also called CD3 antigen; TCR complex
Briefly: competition against FITC-mOKT3 tracer on human PBMC, flow cytometry; affinity calculated from the competitor concentration at half-maximal tracer binding (FIG. 3A).

Experiment [4] addresses T1, human CD3 complex. Nature of the experiment: competition against FITC-mOKT3 tracer on human PBMC, flow cytometry; affinity calculated from the competitor concentration at half-maximal tracer binding (FIG. 3B).

As to 125I-labelled human IgG (antibody), in experiment [1], the maximum binding turned out to be 2750 cpm and the maximum binding as percent of the total radioactivity added is 15%.

B1: gOKT3-5 (antibody, human IgG4, V domains shown)
VH: QVQLVQSGGGVVQPGRSLRLSCKASGYTFTRYTMHWVRQAPGKGLEWIGYINPSRGYTNYNQKVKDRFTISTDKSKSTAFLQMDSLRPEDTAVYYCARYYDDHYCLDYWGQGTPVTVSS
VL: DIQMTQSPSSLSASVGDRVTITCSASSSVSYMNWYQQTPGKAPKRWIYDTSKLASGVPSRFSGSGSGTDYTFTISSLQPEDIATYYCQQWSSNPFTFGQGTKLQITR
notes: Humanized OKT3, human IgG4/kappa; also called gLC/gHA; gOKT3-5(γ4); not shown: human IgG4 heavy chain constant region; human kappa light chain constant region
In experiment [2], B1 returned a fold higher concentration for the same inhibition, against murine OKT3 of 10 fold. In addition, the Ka with human CD3 complex [3] is 1.1e+09 M⁻¹.

B2: gOKT3-7(γ4) (antibody, V domains shown)
VH: QVQLVQSGGGVVQPGRSLRLSCKASGYTFTRYTMHWVRQAPGKGLEWIGYINPSRGYTNYNQKVKDRFTISRDNSKNTAFLQMDSLRPEDTGVYFCARYYDDHYCLDYWGQGTPVTVSS
VL: DIQMTQSPSSLSASVGDRVTITCSASSSVSYMNWYQQTPGKAPKRWIYDTSKLASGVPSRFSGSGSGTDYTFTISSLQPEDIATYYCQQWSSNPFTFGQGTKLQITR
Consider B2, for which, in the experiment with human CD3 complex [4], the Ka is 1.4e+09 M⁻¹.

Values taken from patent US20030108548A1 (TOLERANCE THERAPEUTICS, published 2003).
